Source: the supplement of paper PMC9112550, “Optimization of the antimicrobial peptide Bac7 by deep mutational scanning” (BMC Biology, 2022)

System: Escherichia coli TOP10
Experiment: shrunken log2 fold change of peptide-encoding DNA abundance (4.5 h post-induction vs induction); higher = less antimicrobial activity (less host growth inhibition)
Conditions: time post-induction: 4.5 h; library: site-saturation at positions 5, 18, 19, 20
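Also: peptides expressed intracellularly from a pBAD plasmid library in pooled LB shake-flask culture, induced with 0.3% L-arabinose, DNA abundance read by NGS, three biological replicates, DESeq2 with apeglm shrinkage.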

In order of rising “shrunken log2 fold change” value:
1. RRIRCRPPRLPRPRPRPYVHPRP  -1.53
2. RRIRCRPPRLPRPRPRPYGQPRP  -1.33
3. RRIRCRPPRLPRPRPRPYPWPRP  -1.29
4. RRIRCRPPRLPRPRPRPYLFPRP  -1.19
5. RRIRCRPPRLPRPRPRPYIHPRP  -1.11
6. RRIRCRPPRLPRPRPRPYKNPRP  -0.984
7. RRIRCRPPRLPRPRPRPYFKPRP  -0.931
8. RRIRCRPPRLPRPRPRPYLMPRP  -0.916
9. RRIRCRPPRLPRPRPRPTVIPRP  -0.907
10. RRIRCRPPRLPRPRPRPYTFPRP  -0.883
11. RRIRCRPPRLPRPRPRPYTCPRP  -0.794
12. RRIRCRPPRLPRPRPRPVYMPRP  -0.788
13. RRIRCRPPRLPRPRPRPWIGPRP  -0.775
14. RRIRCRPPRLPRPRPRPYSAPRP  -0.752
15. RRIRCRPPRLPRPRPRPYRFPRP  -0.746
16. RRIRCRPPRLPRPRPRPVIRPRP  -0.733
17. RRIRCRPPRLPRPRPRPWVEPRP  -0.689
18. RRIRCRPPRLPRPRPRPWNKPRP  -0.684
19. RRIRCRPPRLPRPRPRPWCCPRP  -0.649
20. RRIRCRPPRLPRPRPRPYISPRP  -0.637
21. RRIRCRPPRLPRPRPRPTTFPRP  -0.635
22. RRIRCRPPRLPRPRPRPWFVPRP  -0.629
23. RRIRCRPPRLPRPRPRPYEHPRP  -0.554
24. RRIRCRPPRLPRPRPRPYWVPRP  -0.528
25. RRIRCRPPRLPRPRPRPYDNPRP  -0.498
26. RRIRCRPPRLPRPRPRPVIYPRP  -0.493
27. RRIRCRPPRLPRPRPRPVNFPRP  -0.484
28. RRIRCRPPRLPRPRPRPWYVPRP  -0.461
29. RRIRCRPPRLPRPRPRPWIPPRP  -0.457
30. RRIRCRPPRLPRPRPRPVNHPRP  -0.444
31. RRIRCRPPRLPRPRPRPYWWPRP  -0.441
32. RRIRCRPPRLPRPRPRPVKCPRP  -0.432
33. RRIRCRPPRLPRPRPRPVFLPRP  -0.429
34. RRIRCRPPRLPRPRPRPWVQPRP  -0.391
35. RRIRCRPPRLPRPRPRPYYLPRP  -0.38
36. RRIRDRPPRLPRPRPRPCWYPRP  -0.369
37. RRIRCRPPRLPRPRPRPYFWPRP  -0.347
38. RRIRCRPPRLPRPRPRPYDLPRP  -0.325
39. RRIRDRPPRLPRPRPRPCKSPRP  -0.321
40. RRIRDRPPRLPRPRPRPCYFPRP  -0.31
41. RRIRCRPPRLPRPRPRPVEIPRP  -0.296
42. RRIRCRPPRLPRPRPRPTTCPRP  -0.293
43. RRIRCRPPRLPRPRPRPYMAPRP  -0.283
44. RRIRCRPPRLPRPRPRPVKGPRP  -0.261
45. RRIRCRPPRLPRPRPRPWHVPRP  -0.259
46. RRIRCRPPRLPRPRPRPYVDPRP  -0.232
47. RRIRCRPPRLPRPRPRPVQNPRP  -0.22
48. RRIRCRPPRLPRPRPRPTTLPRP  -0.219
49. RRIRCRPPRLPRPRPRPVMHPRP  -0.212
50. RRIRCRPPRLPRPRPRPWAQPRP  -0.211
51. RRIRCRPPRLPRPRPRPWCDPRP  -0.211
52. RRIRCRPPRLPRPRPRPVDCPRP  -0.2
53. RRIRDRPPRLPRPRPRPCCRPRP  -0.197
54. RRIRCRPPRLPRPRPRPYCEPRP  -0.195
55. RRIRCRPPRLPRPRPRPVKFPRP  -0.192
56. RRIRCRPPRLPRPRPRPYPLPRP  -0.191
57. RRIRDRPPRLPRPRPRPCKHPRP  -0.181
58. RRIRCRPPRLPRPRPRPVNQPRP  -0.174
59. RRIRCRPPRLPRPRPRPVAFPRP  -0.169
60. RRIRCRPPRLPRPRPRPWGSPRP  -0.151
61. RRIRCRPPRLPRPRPRPYEPPRP  -0.151
62. RRIRDRPPRLPRPRPRPASNPRP  -0.15
63. RRIRDRPPRLPRPRPRPAHSPRP  -0.143
64. RRIRCRPPRLPRPRPRPWHDPRP  -0.142
65. RRIRCRPPRLPRPRPRPVCFPRP  -0.141
66. RRIRCRPPRLPRPRPRPYRWPRP  -0.141
67. RRIRCRPPRLPRPRPRPVMPPRP  -0.139
68. RRIRDRPPRLPRPRPRPCRGPRP  -0.138
69. RRIRDRPPRLPRPRPRPCVPPRP  -0.135
70. RRIRDRPPRLPRPRPRPCYDPRP  -0.129
71. RRIRCRPPRLPRPRPRPVSMPRP  -0.0967
72. RRIRCRPPRLPRPRPRPWDMPRP  -0.0934
73. RRIRDRPPRLPRPRPRPAYWPRP  -0.0729
74. RRIRCRPPRLPRPRPRPYCRPRP  -0.0628
75. RRIRDRPPRLPRPRPRPAEHPRP  -0.0618
76. RRIRCRPPRLPRPRPRPVSHPRP  -0.0571
77. RRIRDRPPRLPRPRPRPAHKPRP  -0.0546
78. RRIRDRPPRLPRPRPRPAFSPRP  -0.0405
79. RRIRDRPPRLPRPRPRPAHCPRP  -0.0402
80. RRIRCRPPRLPRPRPRPYQKPRP  -0.0372
81. RRIRDRPPRLPRPRPRPAVFPRP  -0.0356
82. RRIRCRPPRLPRPRPRPVEPPRP  -0.0281
83. RRIRCRPPRLPRPRPRPWADPRP  -0.0237
84. RRIRCRPPRLPRPRPRPVLAPRP  -0.0206
85. RRIRDRPPRLPRPRPRPCKLPRP  -0.0175
86. RRIRDRPPRLPRPRPRPANGPRP  -0.0137
87. RRIRDRPPRLPRPRPRPDHFPRP  -0.0133
88. RRIRDRPPRLPRPRPRPAVQPRP  -0.00697
89. RRIRDRPPRLPRPRPRPAGIPRP  -0.00461
90. RRIRDRPPRLPRPRPRPCKKPRP  -0.00395
91. RRIRDRPPRLPRPRPRPCWSPRP  -0.00281
92. RRIRDRPPRLPRPRPRPANAPRP  -0.00277
93. RRIRDRPPRLPRPRPRPCHKPRP  -0.00188
94. RRIRDRPPRLPRPRPRPCRNPRP  -0.000921
95. RRIRCRPPRLPRPRPRPYRSPRP  0.00395
96. RRIRDRPPRLPRPRPRPCATPRP  0.00509
97. RRIRCRPPRLPRPRPRPYRNPRP  0.0132
98. RRIRCRPPRLPRPRPRPWCTPRP  0.023
99. RRIRCRPPRLPRPRPRPVCEPRP  0.0301
100. RRIRDRPPRLPRPRPRPDERPRP  0.0336
101. RRIRDRPPRLPRPRPRPAGNPRP  0.0407
102. RRIRDRPPRLPRPRPRPDKMPRP  0.0425
103. RRIRDRPPRLPRPRPRPDCKPRP  0.0499
104. RRIRCRPPRLPRPRPRPVRNPRP  0.0515
105. RRIRCRPPRLPRPRPRPVTYPRP  0.0559
106. RRIRCRPPRLPRPRPRPVPGPRP  0.0667
107. RRIRDRPPRLPRPRPRPASIPRP  0.0781
108. RRIRCRPPRLPRPRPRPWINPRP  0.102
109. RRIRCRPPRLPRPRPRPTSEPRP  0.108
110. RRIRDRPPRLPRPRPRPCREPRP  0.123
111. RRIRDRPPRLPRPRPRPDLIPRP  0.126
112. RRIRCRPPRLPRPRPRPTSDPRP  0.129
113. RRIRDRPPRLPRPRPRPCLVPRP  0.148
114. RRIRCRPPRLPRPRPRPWEDPRP  0.156
115. RRIRDRPPRLPRPRPRPCICPRP  0.159
116. RRIRDRPPRLPRPRPRPATMPRP  0.168
117. RRIRDRPPRLPRPRPRPDFQPRP  0.189
118. RRIRDRPPRLPRPRPRPCGKPRP  0.2
119. RRIRCRPPRLPRPRPRPWPLPRP  0.222
120. RRIRCRPPRLPRPRPRPWNPPRP  0.228
121. RRIRCRPPRLPRPRPRPVQMPRP  0.239
122. RRIRDRPPRLPRPRPRPDCRPRP  0.249
123. RRIRDRPPRLPRPRPRPCAMPRP  0.259
124. RRIRCRPPRLPRPRPRPVCGPRP  0.268
125. RRIRDRPPRLPRPRPRPDAFPRP  0.297
126. RRIRDRPPRLPRPRPRPAVAPRP  0.309
127. RRIRDRPPRLPRPRPRPAEAPRP  0.314
128. RRIRDRPPRLPRPRPRPACVPRP  0.337
129. RRIRCRPPRLPRPRPRPWGGPRP  0.36
130. RRIRDRPPRLPRPRPRPAHDPRP  0.414
131. RRIRCRPPRLPRPRPRPVQPPRP  0.455
132. RRIRDRPPRLPRPRPRPASMPRP  0.483
133. RRIRDRPPRLPRPRPRPAKWPRP  0.486
134. RRIRCRPPRLPRPRPRPTRQPRP  0.503
135. RRIRDRPPRLPRPRPRPDIWPRP  0.504
136. RRIRDRPPRLPRPRPRPACCPRP  0.512
137. RRIRDRPPRLPRPRPRPAMHPRP  0.527
138. RRIRDRPPRLPRPRPRPDFDPRP  0.541
139. RRIRDRPPRLPRPRPRPCVAPRP  0.633
140. RRIRDRPPRLPRPRPRPDCNPRP  0.685
141. RRIRDRPPRLPRPRPRPCAAPRP  0.704
142. RRIRDRPPRLPRPRPRPDCLPRP  0.779
143. RRIRDRPPRLPRPRPRPAPHPRP  0.852
144. RRIRCRPPRLPRPRPRPVPMPRP  0.998
145. RRIRDRPPRLPRPRPRPDAEPRP  1.23
146. RRIRDRPPRLPRPRPRPAMWPRP  1.24
147. RRIRDRPPRLPRPRPRPDFEPRP  1.35
148. RRIRCRPPRLPRPRPRPTWRPRP  1.4
149. RRIRDRPPRLPRPRPRPAATPRP  1.9
150. RRIRDRPPRLPRPRPRPCWHPRP  2.46
